Literature values as cited in publication PMC10612106.

Molecular target: MORC3 ATPase domain (Homo sapiens) (UniProt Q14149)

For MORC3 CW (from UniProt Q14149), the Kd is given as 9 µM.
